Measurements published in patent publication US20250382390A1 (Chugai, published 2025).

B1: Q-CDR-Clipped Variants (variants of Emicizumab) (bispecific antibody, human IgG4 S228P, kappa)
heavy 1: QVQLVESGGGLVQPGGSLRLSCAASGFTFSYYDIQWVRQAPGKGLEWVSSISPSGQSTYYRREVKGRFTISRDNSKNTLYLQMNSLRAEDTAVYYCARRTGREYGGGWYFDYWGQGTLVTVSSASTKGPSVFPLAPCSRSTSESTAALGCLVKDYFPEPVTVSWNSGALTSGVHTFPAVLQSSGLYSLSSVVTVPSSSLGTQTYTCNVDHKPSNTKVDKRVESKYGPPCPPCPAPEFLGGPSVFLFPPKPKDTLMISRTPEVTCVVVDVSQEDPEVQFNWYVDGVEVHNAKTKPREEQYNSTYRVVSVLTVLHQDWLNGKEYKCKVSNKGLPSSIEKTISKAKGQPREPQVYTLPPSQKEMTKNQVSLTCLVKGFYPSDIAVEWESNGQPENNYKTTPPVLDSDGSFFLYSKLTVDKSRWQEGNVFSCSVMHEALHNRYTQKSLSLSP
heavy 2: QVQLVQSGSELKKPGASVKVSCKASGYTFTDNNMDWVRQAPGQGLEWMGDINTRSGGSIYNEEFQDRVIMTVDKSTDTAYMELSSLRSEDTATYHCARRKSYGYYLDEWGEGTLVTVSSASTKGPSVFPLAPCSRSTSESTAALGCLVKDYFPEPVTVSWNSGALTSGVHTFPAVLQSSGLYSLSSVVTVPSSSLGTQTYTCNVDHKPSNTKVDKRVESKYGPPCPPCPAPEFLGGPSVFLFPPKPKDTLMISRTPEVTCVVVDVSQEDPEVQFNWYVDGVEVHNAKTKPREEQYNSTYRVVSVLTVLHQDWLNGKEYKCKVSNKGLPSSIEKTISKAKGQPREPQVYTLPPSQEEMTKNQVSLTCLVKGFYPSDIAVEWESNGQPENNYKTTPPVLDSDGSFFLYSKLTVDKSRWQEGNVFSCSVMHEALHNHYTQESLSLSP
light: DIQMTQSPSSLSASVGDRVTITCKASRNIERQLAWYQQKPGQAPELLIYQASRKESGVPDRFSGSRYGTDFTLTISSLQPEDIATYYCQQYSDPPLTFGGGTKVEIKRTVAAPSVFIFPPSDEQLKSGTASVVCLLNNFYPREAKVQWKVDNALQSGNSQESVTEQDSKDSTYSLSSTLTLSKADYEKHKVYACEVTHQGLSSPVTKSFNRGEC
modifications: Q chain: R at the 61st position from the N terminus (Kabat 60), or YYR at the 59th to 61st positions (Kabat 58 to 60), deleted and the chain cleaved at the deletion site; the N-terminal and C-terminal fragments are joined via a disulfide bond
B2: Protected Disulfide Isoforms (isoforms of Emicizumab) (bispecific antibody, human IgG4 S228P, kappa)
heavy 1: B1 heavy 1
heavy 2: B1 heavy 2
light: B1 light

What was measured:
[1] = target: activated blood coagulation factor IX (FIXa) (UniProt P00740 47-461, limits assumed); experiment: cell-based or functional assay
[2] = target: blood coagulation factor X (FX) (UniProt P00742 41-488, limits assumed); experiment: cell-based or functional assay
blood coagulation factor X (FX), sequence (P00742 41-488 limits assumed): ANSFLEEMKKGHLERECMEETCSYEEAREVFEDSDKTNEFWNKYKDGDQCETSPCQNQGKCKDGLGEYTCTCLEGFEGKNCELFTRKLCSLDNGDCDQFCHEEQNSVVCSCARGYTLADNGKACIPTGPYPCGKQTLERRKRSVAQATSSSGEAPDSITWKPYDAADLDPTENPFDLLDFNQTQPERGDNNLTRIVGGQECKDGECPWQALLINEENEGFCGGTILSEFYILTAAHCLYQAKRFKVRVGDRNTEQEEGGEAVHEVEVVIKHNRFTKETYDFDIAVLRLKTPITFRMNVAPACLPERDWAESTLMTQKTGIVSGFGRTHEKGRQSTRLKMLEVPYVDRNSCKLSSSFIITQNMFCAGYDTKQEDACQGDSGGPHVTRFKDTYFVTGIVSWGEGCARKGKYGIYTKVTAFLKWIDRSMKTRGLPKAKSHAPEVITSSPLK

activated blood coagulation factor IX (FIXa), sequence (P00740 47-461 limits assumed): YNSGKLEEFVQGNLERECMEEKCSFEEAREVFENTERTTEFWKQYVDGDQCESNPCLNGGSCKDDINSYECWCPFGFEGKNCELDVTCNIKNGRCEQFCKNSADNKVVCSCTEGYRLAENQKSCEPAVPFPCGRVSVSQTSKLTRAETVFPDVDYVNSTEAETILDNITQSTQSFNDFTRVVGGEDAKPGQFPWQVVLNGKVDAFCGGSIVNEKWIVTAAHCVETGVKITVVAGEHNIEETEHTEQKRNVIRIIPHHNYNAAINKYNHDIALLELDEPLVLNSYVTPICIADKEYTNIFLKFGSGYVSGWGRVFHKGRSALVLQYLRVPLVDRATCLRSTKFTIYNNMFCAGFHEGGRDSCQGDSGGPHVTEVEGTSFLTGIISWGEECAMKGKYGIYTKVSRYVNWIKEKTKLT

Binder | biological activity relative to the Emicizumab standard solution (chromogenic assay: FXa produced in the presence of FIXa, FX and phospholipid) [1] | biological activity relative to the Emicizumab standard solution (chromogenic assay: FXa produced in the presence of FIXa, FX and phospholipid) [2]
B1 | 18% | 18%
B2 | 8% | 8%
